Laboratory results as given in PMC11287749, “Optical Aptamer-Based Cytokine Nanosensor Detects Macrophage Activation by Bacterial Toxins”.

Target: IL-6 (human recombinant, Invitrogen) (Homo sapiens, UniProt P05231 30-212)
Assay: SWCNT NIR fluorescence; PBS, 5250 ng/mL IL-6, 3 h; p = 0.66; 0.5 mg/L SWCNT-ssDNA in 1x PBS (or 1x PBS + 10% FBS), 5250 ng/mL IL-6, 120 uL, up to 180 min; pH and temperature not stated in the material
Conditions: protein: commercial

Chain of IL-6 (human recombinant, Invitrogen) (P05231 30-212): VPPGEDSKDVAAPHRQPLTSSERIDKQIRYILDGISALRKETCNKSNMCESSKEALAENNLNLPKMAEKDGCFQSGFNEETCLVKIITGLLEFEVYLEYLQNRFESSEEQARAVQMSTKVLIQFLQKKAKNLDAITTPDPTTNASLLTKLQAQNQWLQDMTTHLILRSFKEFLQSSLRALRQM

GTGTGTGTGTGTGTGTGTGTGTGTGTGTGT (ssDNA, noncovalently adsorbed on SWCNT) [(GT)15 control]
binding result: no binding
